The target in experiment [1] is T1, mouse AdipoR1 (mouse adiponectin receptor 1) (mouse, UniProt Q91VH1 1-375).
T1 construct: also called mAdipoR1
T1 sequence: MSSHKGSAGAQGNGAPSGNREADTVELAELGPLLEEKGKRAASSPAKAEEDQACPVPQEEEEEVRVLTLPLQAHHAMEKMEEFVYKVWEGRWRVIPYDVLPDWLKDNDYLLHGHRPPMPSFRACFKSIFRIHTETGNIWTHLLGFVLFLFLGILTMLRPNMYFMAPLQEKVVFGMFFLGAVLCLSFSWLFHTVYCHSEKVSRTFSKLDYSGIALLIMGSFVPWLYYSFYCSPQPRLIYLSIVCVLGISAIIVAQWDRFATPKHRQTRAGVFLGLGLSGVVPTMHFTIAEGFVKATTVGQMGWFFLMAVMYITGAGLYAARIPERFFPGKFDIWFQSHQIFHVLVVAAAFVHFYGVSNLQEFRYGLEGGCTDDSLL
As to the kind of experiment: Scatchard analysis of [125I] gAd binding to C2C12 myocytes; high affinity sites, tied to AdipoR1 because AdipoR1 siRNA abrogated them.

Experiment [2] concerns the target T2, mouse AdipoR2 (mouse adiponectin receptor 2) (mouse, UniProt Q8BQS5 76-386).
T2 construct: also called mAdipoR2
T2 sequence: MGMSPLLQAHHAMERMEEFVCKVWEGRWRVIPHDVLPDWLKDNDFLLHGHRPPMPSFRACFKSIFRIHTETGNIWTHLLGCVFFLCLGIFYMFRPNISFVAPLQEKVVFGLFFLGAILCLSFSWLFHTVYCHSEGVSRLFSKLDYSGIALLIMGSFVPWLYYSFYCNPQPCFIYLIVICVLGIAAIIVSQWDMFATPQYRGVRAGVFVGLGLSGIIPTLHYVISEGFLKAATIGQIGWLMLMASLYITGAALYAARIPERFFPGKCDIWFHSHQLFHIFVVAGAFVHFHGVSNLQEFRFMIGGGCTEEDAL
The experiment is described as follows: Scatchard analysis of [125I] gAd binding to C2C12 myocytes; intermediate affinity sites, tied to AdipoR2 because AdipoR2 siRNA abrogated them.

Experiment [3] addresses T2, mouse AdipoR2 (mouse adiponectin …). The experiment is described as follows: Scatchard analysis of [125I] Ad binding to C2C12 myocytes; intermediate affinity sites, tied to AdipoR2 because AdipoR2 siRNA abrogated them.

“And” between values parts separate entries of the source, which are not always exact repeats. Identical values can stand only once.

B1: adiponectin consisting solely of the globular domain (globular Adipo) (ligand, mouse, UniProt Q60994 104-247, looked up)
chain: KGEPGEAAYVYRSAFSVGLETRVTVPNVPIRFTKIFYNQQNHYDGSTGKFYCNIPGLYYFSYHITVYMKDVKVSLFKKDKAVLFTYDQYQEKNVDQASGSVLLHLEVGDQVWLQVYGDGDHNGLYADNVNDSTFTGFLLYHDTN
modifications: 125I-labeled at Tyr in the radioligand binding assay; biotinylated with NHS-LC-Biotin or conjugated with FITC in the FACS experiments
notes: domain: globular domain; also called gAd; globular adiponectin
As usually defined, the Kd is the free concentration of one partner at which half of the binding sites on the other are occupied at equilibrium, for simple one-to-one binding. Low values mean higher affinity, high ones lower affinity. In the case of B1, the Kd is ~0.06 µg/mL and ~1.14 nM in experiment [1]; ~0.8 µg/mL and ~14.4 nM in experiment [2].

B2: full-length adiponectin (full-length Adipo) (ligand, mouse, UniProt Q60994 18-247, looked up)
chain: EDDVTTTEELAPALVPPPKGTCAGWMAGIPGHPGHNGTPGRDGRDGTPGEKGEKGDAGLLGPKGETGDVGMTGAEGPRGFPGTPGRKGEPGEAAYVYRSAFSVGLETRVTVPNVPIRFTKIFYNQQNHYDGSTGKFYCNIPGLYYFSYHITVYMKDVKVSLFKKDKAVLFTYDQYQEKNVDQASGSVLLHLEVGDQVWLQVYGDGDHNGLYADNVNDSTFTGFLLYHDTN
modifications: 125I-labeled at Tyr in the radioligand binding assay
notes: also called [125I] full-length Adipo
On to B2, for which, in experiment [3], the Kd is ~6.7 µg/mL and ~49.1 nM.

The values are drawn from US7977459 (TOUDAI TLO, dated 2011).
